Experimental data reported in the supplement of paper PMC9732359.
± gives the uncertainty stated by the source.

Assay: protein stability index of a GFP-peptide fusion (yeast GPS) (PSI 1-4); higher = more stable; sorted into four equal gates, so the index is relative within each strain
Details: pdr5∆
Summary of the method: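 Tiled 17-residue yeast protein peptides were fused downstream of GFP in a plasmid that also expresses Cherry, and the pooled library was carried in yeast. Mid-log cultures in leucine-free medium were sorted into four equal gates by GFP/Cherry fluorescence ratio, and plasmids from each gate were PCR-amplified and Illumina-sequenced, with reads assigned to strains by barcodes. The protein stability index for each peptide was each gate's read frequency times its gate number, summed.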
For KWQTLIEANVTVKTSDD [RPS1A], the protein stability index was 1.62 ± 0.044.
Work on KYAQDGAGIERELARIK [RPL3] yielded a protein stability index of 3.46 ± 0.16.
For KYIGEGSRMVRELFVMA [RPT6], the protein stability index was 2.11 ± 0.058.

Same assay, conditions: san1∆
Work on KLLKIPKFISEALAFTS [YDL116W/NUP84] yielded a protein stability index of 2.24 ± 0.1.
With KLLKVCLTMFEDRNESV [ECM29] the protein stability index was 2.58 ± 0.078.
KLLSLLRSKTSAGRIES [SIR4] showed a protein stability index of 2.42 ± 0.15.
In the case of KLMDEDSVATVIEVIET [YJR042W/NUP85], the protein stability index is reported as 2.51 ± 0.11.
KLNQKYDIVKFLTVSKL [GRR1] showed a protein stability index of 2.06 ± 0.052.
Work on KLQENRTLLTEEIEPKL [SMC2] yielded a protein stability index of 2.76 ± 0.15.
Work on KLQGLYENIPIYATFLN [YDL116W/NUP84] yielded a protein stability index of 1.22 ± 0.14.
KLQSWDKVSSCFPQYVN [NNF1] gave a protein stability index of 1.45 ± 0.15.
Sequence KLRDHEPDLESQISKAE [SMC4] has a protein stability index of 3.16 ± 0.16.
For KLSDIFLSKPSKALYPD [SNF2], the protein stability index was 2.61 ± 0.042.
KLVRDAFALAKEKAPTI [RPT5] gave a protein stability index of 2.94 ± 0.083.
In the case of KLVTYIVKFKQKEEGRS [YLR335W/NUP2], the protein stability index is reported as 3.33 ± 0.044.
KLYDAKRYTSEGTRNRF [YMR129W/POM152] showed a protein stability index of 3.23 ± 0.058.
Sequence KMDFSSKEGQYKAKIKE [YIL149C/MLP2] has a protein stability index of 3.17 ± 0.063.
For KMLSCAGADRLQQGMRG [RPL10], the protein stability index was 2.98 ± 0.11.
Work on KNDLFVIWSEDNDEKLI [RPO21] yielded a protein stability index of 3.1 ± 0.045.
For KNEKLKFQETLLRQKIE [ISW2], the protein stability index was 1.16 ± 0.15.
In the case of KNGVIPEESKGSFKYIT [SWP82], the protein stability index is reported as 2.96 ± 0.047.
KNIPKTRYNRDYMLSMA [SNU114] showed a protein stability index of 2.9 ± 0.056.
In the case of KNKENNTFTWNHSLQHQ [RPN4], the protein stability index is reported as 2.25 ± 0.067.
KNLQRESCEDILDLKEF [RTT102] showed a protein stability index of 3.17 ± 0.28.
With KNNNGDEKNKNNNEDNE [MED2] the protein stability index was 2.87 ± 0.11.
KNNNNANNNGSNLQRAQ [GAL11] gave a protein stability index of 3.28 ± 0.14.
Sequence KNNSSIRNVIMSASNAN [SRB8] has a protein stability index of 1.88 ± 0.095.
KNPHDIIEGINAGEIEI [RPL12A] gave a protein stability index of 2.22 ± 0.096.
In the case of KNSRVELQKIYDRHQSS [SMC4], the protein stability index is reported as 3.37 ± 0.11.
KNYDATDKPFSSTQDVI [CSI1] gave a protein stability index of 2.85 ± 0.088.
For KPKAVARKSKEEREAAA [RPC53], the protein stability index was 2.61 ± 0.15.
Sequence KPLADLRPLFTRYELYI [YLR335W/NUP2] has a protein stability index of 2.09 ± 0.073.
KPNNTANTGGGLFGANS [YGL172W/NUP49] gave a protein stability index of 3.03 ± 0.072.
Sequence KPNQTIMVLDASIGQAA [SRP54] has a protein stability index of 2.69 ± 0.07.
With KPSFSFGVPNSSKNETS [YLR335W/NUP2] the protein stability index was 2.46 ± 0.098.
For KPYVDRFAFSVIWELDD [DIS3], the protein stability index was 2.15 ± 0.05.
KQDCVDWFTYSYFYRRI [BRR2] showed a protein stability index of 1.51 ± 0.053.
For KQDEKKSSELELQKLVH [SMC2], the protein stability index was 3.4 ± 0.071.
In the case of KQENSSRFTNVSVIAPE [YMR153W/NUP53], the protein stability index is reported as 1.59 ± 0.062.
With KQFVVDVLHPNRANVSK [RPS24A] the protein stability index was 2.96 ± 0.079.
KQHAVLMLGSVNLPGGI [RRP4] showed a protein stability index of 1.94 ± 0.081.
Sequence KQQEQLEQQKQPTGLLK [YMR153W/NUP53] has a protein stability index of 2.97 ± 0.069.
In the case of KQRAGTASFIPLDTIET [SMC1], the protein stability index is reported as 2.65 ± 0.056.
With KQREIVKAFLSIFEDAI [NUT1] the protein stability index was 2.38 ± 0.19.
With KQRFQGCNNLIKNISNR [ARP9] the protein stability index was 3.26 ± 0.063.
Sequence KQRKNPRRIAWTVLFRK [RPL24A] has a protein stability index of 1.41 ± 0.25.
Work on KQVLDVDPVYKDVAKPT [FAS2] yielded a protein stability index of 3.08 ± 0.037.
For KRAEKAARKAEKAKSAG [RPL24B], the protein stability index was 1.55 ± 0.087.
For KRAFTKKVASANATAAE [RPL16A], the protein stability index was 2.82 ± 0.04.
KRCMDDLNPLKTLNLFK [RPO31] gave a protein stability index of 2.69 ± 0.12.
In the case of KRFLILQGEVENIAQMK [SMC4], the protein stability index is reported as 3.2 ± 0.14.
In the case of KRIESLQKDLQRQKTYV [SMC1], the protein stability index is reported as 2.85 ± 0.21.
Sequence KRIKGLEFSALSAADIV [RPO31] has a protein stability index of 3.15 ± 0.061.
KRLLGTAFKSSPFGGSS [RPS23A] showed a protein stability index of 2.33 ± 0.055.
Work on KRLNFSFVGDYMHDTEL [GRR1] yielded a protein stability index of 2.47 ± 0.11.
For KRPGKLSDYIPGPYPNE [CYT1], the protein stability index was 3.24 ± 0.041.
KRPRSRTLTAVHDKVLE [RPS7B] gave a protein stability index of 3.02 ± 0.07.
Sequence KRPTPPSFTFGGSTTNN [YOR098C/NUP1] has a protein stability index of 2.78 ± 0.043.
In the case of KRRFGELMDRTGLKLYS [RPP1], the protein stability index is reported as 2.23 ± 0.11.
KRSMDAEQLGHASKRHK [RPP1] gave a protein stability index of 2.68 ± 0.056.
Sequence KRSQKKHKKKHLKHENA [RPB4] has a protein stability index of 3.09 ± 0.037.
In the case of KRTIRIKTQQHILPEVP [TAF14], the protein stability index is reported as 2.2 ± 0.066.
With KRVDFSGRTVISPDPNL [RPO31] the protein stability index was 3.2 ± 0.14.
In the case of KSAISNNFRESDIIILK [SIR4], the protein stability index is reported as 2.96 ± 0.06.
Sequence KSFYSTATGAASKSGKL [CYT1] has a protein stability index of 2.87 ± 0.079.
With KSGRINGFHGRLGDLGV [SMC4] the protein stability index was 3.13 ± 0.1.
Sequence KSMASAFGVSVAFLDND [RPN7] has a protein stability index of 3.01 ± 0.066.
In the case of KSMGRKCFDDIEPHIFD [YCG1], the protein stability index is reported as 3.29 ± 0.046.
KSMLSKPETLSIGKNPF [SWI3] showed a protein stability index of 2.6 ± 0.05.
In the case of KSMSILNSFVNDIFERI [HTB1], the protein stability index is reported as 2.47 ± 0.2.
KSSFVKESAVISKQKSK [SMC1] showed a protein stability index of 2.26 ± 0.064.
In the case of KSSLYSAQDLLDKHERK [YIL149C/MLP2], the protein stability index is reported as 2.83 ± 0.11.
With KSSPISNEAAKPSFSFP [YOR098C/NUP1] the protein stability index was 2.96 ± 0.037.
In the case of KSTYRTPNFDDVLKENN [RIP1], the protein stability index is reported as 1.38 ± 0.14.
For KSVEKTMIKKTTLVTRR [SMC3], the protein stability index was 2.91 ± 0.066.
KTAIEGSYIDKKCPFTG [RPS11A] gave a protein stability index of 3.08 ± 0.051.
KTAPIQESFVPNSERSG [YOR098C/NUP1] showed a protein stability index of 1.4 ± 0.26.
In the case of KTAQTLDENLNSLSSNL [YJL041W/NSP1], the protein stability index is reported as 2.23 ± 0.061.
Work on KTATVKINKKLNKAGKP [RPL38] yielded a protein stability index of 3.22 ± 0.098.
Work on KTFEIKEIKTNEYVIKT [YMR129W/POM152] yielded a protein stability index of 1.92 ± 0.091.
KTKKEKGPNEEEKKKEH [RPN2] gave a protein stability index of 3.49 ± 0.081.
With KTLTEEVTKSSHVENLE [YIL149C/MLP2] the protein stability index was 2.86 ± 0.051.
In the case of KTTNTTPSFSFGAKSDE [YJL041W/NSP1], the protein stability index is reported as 3.09 ± 0.035.
KTVAVDSVFEQNEMIDA [RPL3] showed a protein stability index of 2.31 ± 0.11.
Sequence KTVQSMTQRAIQSAESI [SWI3] has a protein stability index of 2.53 ± 0.13.
Sequence KTYALESINNVVDQLWS [RPN2] has a protein stability index of 2.7 ± 0.07.
For KVDATPEESKPINLQNG [YLR335W/NUP2], the protein stability index was 2.8 ± 0.06.
KVDSPDDPFMTKSGATT [GAL11] gave a protein stability index of 2.59 ± 0.055.
Work on KVFDCGDNIVMSANGFA [PRE7] yielded a protein stability index of 2.88 ± 0.11.
For KVFVPPKSKSLPNEMSQ [RPO31], the protein stability index was 3.09 ± 0.16.
For KVGAEMMMQQQLKNVQL [MED2], the protein stability index was 2.96 ± 0.07.
In the case of KVGIWPYFDYIFNDILA [YJL039C/NUP192], the protein stability index is reported as 1.75 ± 0.17.
For KVKKPLKYLSVEEVIKL [PRE7], the protein stability index was 2.75 ± 0.083.
KVLINDQLSTISMILRN [SWI1] showed a protein stability index of 2.17 ± 0.07.
With KVLKSGSGVDSSKLQLT [RRP42] the protein stability index was 3.16 ± 0.074.
Work on KVLQLLRLTRINSGTFV [RPL7A] yielded a protein stability index of 1.2 ± 0.17.
KVSAREKSAYKFFHNGM [FAS2] showed a protein stability index of 3.35 ± 0.099.
In the case of KVSSAEYYAKKRAFTKK [RPL16A], the protein stability index is reported as 2.98 ± 0.092.
With KVVKTPGGILRAQHVKK [RPL34A] the protein stability index was 2.9 ± 0.064.
Sequence KWPEYVRVQRQKKILSI [RPL8A] has a protein stability index of 1.15 ± 0.098.
KWQTLIEANVTVKTSDD [RPS1A] showed a protein stability index of 1.61 ± 0.078.
Work on KYIGEGSRMVRELFVMA [RPT6] yielded a protein stability index of 2.81 ± 0.082.
